For one substance, stoichiometry N results are on record in publication PMC8930769.

One may read the stoichiometry N as a count of units in the complex or per binding partner.

The experiment has as its target native human uromodulin (UMOD), full-length, filaments (human) (UniProt P07911). The experiment can be described thus: cryo-EM structure; purified native UMOD filaments and His-tagged FimHL A27V mixed at a molar ratio of 1:3, 30 min, dialysed against 10 mM Na-HEPES pH 7.0; single-particle cryo-EM, 7.4 Å; FimHL docked into the difference map.

For the substance “His-tagged FimHL A27V from UPEC strain UTI89 (from UniProt Q1R2J4 22-179) (domain or fragment)”, the stoichiometry N is 1.
